From the supplement of paper PMC9112550, “Optimization of the antimicrobial peptide Bac7 by deep mutational scanning” (BMC Biology, 2022)

Test system: Escherichia coli TOP10
Experiment: shrunken log2 fold change of peptide-encoding DNA abundance (4.5 h post-induction vs induction); higher = less antimicrobial activity (less host growth inhibition)
Conditions: time post-induction: 4.5 h; library: site-saturation at positions 5, 18, 19, 20
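Also: peptides expressed intracellularly from a pBAD plasmid library in pooled LB shake-flask culture, induced with 0.3% L-arabinose, DNA abundance read by NGS, three biological replicates, DESeq2 with apeglm shrinkage.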

| Sequence | shrunken log2 fold change |
| --- | --- |
| RRIRSRPPRLPRPRPRPHTLPRP | -0.116 |
| RRIRFRPPRLPRPRPRPGFEPRP | -0.0266 |
| RRIRRRPPRLPRPRPRPTSHPRP | 0.321 |
| RRIRGRPPRLPRPRPRPFLNPRP | 0.18 |
| RRIRKRPPRLPRPRPRPKAWPRP | -0.0159 |
| RRIRQRPPRLPRPRPRPYLAPRP | -0.21 |
| RRIRSRPPRLPRPRPRPSCYPRP | -0.511 |
| RRIRPRPPRLPRPRPRPHLNPRP | -0.517 |
| RRIRIRPPRLPRPRPRPGMFPRP | -0.284 |
| RRIRTRPPRLPRPRPRPEHAPRP | -0.108 |
| RRIRSRPPRLPRPRPRPSHQPRP | -0.284 |
| RRIRGRPPRLPRPRPRPLFNPRP | 0.117 |
| RRIRMRPPRLPRPRPRPEHPPRP | 0.75 |
| RRIRIRPPRLPRPRPRPMRCPRP | -0.0263 |
| RRIRERPPRLPRPRPRPCQAPRP | -0.0282 |
| RRIRLRPPRLPRPRPRPRHNPRP | -0.521 |
| RRIRARPPRLPRPRPRPWLGPRP | 0.417 |
| RRIRSRPPRLPRPRPRPYYIPRP | -0.461 |
| RRIRNRPPRLPRPRPRPGLYPRP | -0.581 |
| RRIRKRPPRLPRPRPRPLTKPRP | 0.457 |
| RRIRRRPPRLPRPRPRPNHYPRP | -0.314 |
| RRIRDRPPRLPRPRPRPCPEPRP | -0.0682 |
| RRIRFRPPRLPRPRPRPTAHPRP | 0.193 |
| RRIRTRPPRLPRPRPRPWLCPRP | 0.0607 |
| RRIRMRPPRLPRPRPRPYDNPRP | 0.213 |

| Sequence | shrunken log2 fold change |
| --- | --- |
| RRIRWRPPRLPRPRPRPQILPRP | -0.164 |
| RRIRDRPPRLPRPRPRPKCIPRP | -0.318 |
| RRIRCRPPRLPRPRPRPHQAPRP | -0.0274 |
| RRIRERPPRLPRPRPRPWMHPRP | -0.126 |
| RRIRDRPPRLPRPRPRPQSSPRP | 0.0176 |
| RRIRARPPRLPRPRPRPHLPPRP | 0.0943 |
| RRIRARPPRLPRPRPRPNWQPRP | -0.0264 |
| RRIRMRPPRLPRPRPRPIGGPRP | 0.0689 |
| RRIRCRPPRLPRPRPRPHFWPRP | 0.125 |
| RRIRCRPPRLPRPRPRPTNDPRP | -0.218 |
| RRIRSRPPRLPRPRPRPCAIPRP | -0.475 |
| RRIRARPPRLPRPRPRPESNPRP | 0.553 |
| RRIRARPPRLPRPRPRPWGDPRP | 0.376 |
| RRIRGRPPRLPRPRPRPATHPRP | 0.862 |
| RRIRKRPPRLPRPRPRPFPIPRP | -0.0405 |
| RRIRGRPPRLPRPRPRPFLSPRP | 0.162 |
| RRIRARPPRLPRPRPRPGYAPRP | 0.0374 |
| RRIRMRPPRLPRPRPRPIHMPRP | -0.221 |
| RRIRKRPPRLPRPRPRPFQMPRP | -0.28 |
| RRIRKRPPRLPRPRPRPVHCPRP | 0.0295 |
| RRIRWRPPRLPRPRPRPKCCPRP | 0.0888 |
| RRIRQRPPRLPRPRPRPAADPRP | 0.0593 |
| RRIRERPPRLPRPRPRPETFPRP | -0.0158 |
| RRIRTRPPRLPRPRPRPYTAPRP | -0.389 |
| RRIRDRPPRLPRPRPRPWLDPRP | 0.0593 |

| Sequence | shrunken log2 fold change |
| --- | --- |
| RRIRMRPPRLPRPRPRPFCVPRP | 0.00978 |
| RRIRLRPPRLPRPRPRPNSKPRP | -0.706 |
| RRIRNRPPRLPRPRPRPLIKPRP | -0.651 |
| RRIRARPPRLPRPRPRPEQWPRP | 0.0858 |
| RRIRHRPPRLPRPRPRPPLWPRP | 0.323 |
| RRIRTRPPRLPRPRPRPYGNPRP | -0.0638 |
| RRIRSRPPRLPRPRPRPHMNPRP | -0.548 |
| RRIRVRPPRLPRPRPRPGTLPRP | -0.174 |
| RRIRQRPPRLPRPRPRPPEGPRP | 0.228 |
| RRIRHRPPRLPRPRPRPMWMPRP | -0.000946 |
| RRIRDRPPRLPRPRPRPYWPPRP | -0.547 |
| RRIRWRPPRLPRPRPRPHTQPRP | -0.56 |
| RRIRGRPPRLPRPRPRPEHNPRP | 0.327 |
| RRIRPRPPRLPRPRPRPFFRPRP | -0.0565 |
| RRIRCRPPRLPRPRPRPYFAPRP | -0.563 |
| RRIRERPPRLPRPRPRPKELPRP | 0.00511 |
| RRIRNRPPRLPRPRPRPVSYPRP | 0.0156 |
| RRIRSRPPRLPRPRPRPIKAPRP | 0.0326 |
| RRIRMRPPRLPRPRPRPTPDPRP | 1.39 |
| RRIRFRPPRLPRPRPRPTQFPRP | 0.153 |
| RRIRVRPPRLPRPRPRPEWGPRP | 2.29 |
| RRIRTRPPRLPRPRPRPVWDPRP | 0.13 |
| RRIRKRPPRLPRPRPRPCRIPRP | -0.0405 |
| RRIRSRPPRLPRPRPRPQLEPRP | 0.455 |
| RRIRCRPPRLPRPRPRPNPAPRP | 0.101 |
